These results are taken from patent US20250281613A1 (CELLECTIS S A, published 2025).

For this experiment, the target named is T1, CS1 recombinant protein (SEQ ID NO: 97), plate-bound.
T1 chain: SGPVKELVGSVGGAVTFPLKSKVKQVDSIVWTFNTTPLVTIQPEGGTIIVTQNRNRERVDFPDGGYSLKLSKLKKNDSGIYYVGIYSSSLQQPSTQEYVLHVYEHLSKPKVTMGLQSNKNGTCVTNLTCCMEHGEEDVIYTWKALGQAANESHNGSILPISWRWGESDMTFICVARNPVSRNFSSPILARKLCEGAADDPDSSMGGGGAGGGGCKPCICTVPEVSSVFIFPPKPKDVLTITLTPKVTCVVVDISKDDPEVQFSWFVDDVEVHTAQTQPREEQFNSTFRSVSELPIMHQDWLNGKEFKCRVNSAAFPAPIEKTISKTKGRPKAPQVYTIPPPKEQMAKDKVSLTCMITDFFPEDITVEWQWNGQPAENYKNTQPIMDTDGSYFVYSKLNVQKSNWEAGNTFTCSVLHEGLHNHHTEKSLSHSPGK
As to the kind of experiment: cell-based or functional assay.

B1: CS1-specific second generation CAR (SEQ ID NO: 96) on T cells (other)
chain: QVQLQQPGAELVRPGASVKLSCKASGYSFTTYWMNWVKQRPGQGLEWIGMIHPSDSETRLNQKFKDKATLTVDKSSSTAYMQLSSPTSEDSAVYYCARSTMIATRAMDYWGQGTSVTVSSGGGGSGGGGSGGGGSDIVMTQSQKSMSTSVGDRVSITCKASQDVITGVAWYQQKPGQSPKLLIYSASYRYTGVPDRFTGSGSGTDFTFTISNVQAEDLAVYYCQQHYSTPLTFGAGTKLELKTTTPAPRPPTPAPTIASQPLSLRPEACRPAAGGAVHTRGLDFACDIYIWAPLAGTCGVLLLSLVITLYCKRGRKKLLYIFKQPFMRPVQTTQEEDGCSCRFPEEEEGGCELRVKFSRSADAPAYQQGQNQLYNELNLGRREEYDVLDKRRGRDPEMGGKPRRKNPQEGLYNELQKDKMAEAYSEIGMKGERRRGKGHDGLYQGLSTATKDTYDALHMQALPPR
Consider B1, for which the “RNA-seq of CAR+ T cells 24 h after activation on plate-bound CS1 protein versus unactivated cells: genes induced (fold change greater than 5)” value was determined as 159 genes.
